From the supplement of paper PMC12042874 come the findings set out here.

A short description of this data set: amyloid nucleation score (Sup35N fusion, yeast selection) (log enrichment); library NNK1; higher = more nucleation; inactive = no reads after selection. The gist of the method: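 The nucleation score, computed with DiMSum, is the log enrichment of output over input reads, centred on the mode score of non-aggregating sequences. Sequences with under 100 input reads were dropped. Reads were generated by Illumina sequencing of plasmid inserts from psi-negative yeast with Sup35N fused to peptides of 20 random codons, induced with 100 μM copper sulfate for 24 hours and grown 7 days at 30°C on medium lacking adenine and uracil.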

± gives the uncertainty stated by the source.

LGLDTEVVGPGPGGYHLWQK registered an amyloid nucleation score of 0.112 ± 0.27.

In the case of GNFMNRCAFRRMGYSTISIN, the amyloid nucleation score was determined as 1.35 ± 0.47.

On to FKNCFDSNTAGICLNHLWKR, for which the amyloid nucleation score turned out to be 1.25 ± 0.63.

Substance LLGVGCNRIDWLNGAKN yielded an amyloid nucleation score of 2.04 ± 0.49.

As for VFWTYVGERKKSLVCRNLGA, the amyloid nucleation score was -0.189 ± 0.71.

Take NRLWSIRK: the amyloid nucleation score was -0.425 ± 0.34.

In turn, TRQWGHFSLYGESYFSCI yielded an amyloid nucleation score of 0.187 ± 0.63.

In the case of RCTSSPFVVL, the amyloid nucleation score was 0.668 ± 0.82.

For the substance ARIMFVPWSLNDLWLGRFSM, the amyloid nucleation score was -0.263 ± 0.45.

The substance VPLVVNRDARH returned an amyloid nucleation score of 1.26 ± 0.59.

In turn, EWGANYVGVDCSLVVRRQDV displayed an amyloid nucleation score of 0.497 ± 0.93.

WSRTDRDDLLVYMKLPRHVY: the amyloid nucleation score amounted to 0.472 ± 0.37.

Substance RYRNVVRSFFNEYRLCPGIE gave an amyloid nucleation score of -0.235 ± 1.4.

The substance IYMCIGWQ yielded an amyloid nucleation score of 7.268 ± 0.044.

Regarding SLITGIRRSGMAICLDLWAG, the amyloid nucleation score was -1.21 ± 2.7.

Consider FRWNLQAWQEVSGAGQRAVV, for which the amyloid nucleation score is -0.014 ± 0.76.

In turn, YYDSGVSPAVQSPECSTSGA gave an amyloid nucleation score of 0.186 ± 0.93.

As for VLSKFIVSDLMAISQNKLHR, the amyloid nucleation score result was “inactive”.

Regarding FINAYRMFWIGYCNLFSLFL, the amyloid nucleation score worked out at 1.38 ± 0.52.

Take TYLRKIKKRFPGSRYPSLMG: the amyloid nucleation score was found to be 0.15 ± 0.46.

Substance MACKIIYVTVEGMLRSRS gave an amyloid nucleation score of 1.31 ± 0.56.

On to VYAQMALLR, for which the amyloid nucleation score is -0.164 ± 0.62.

TLGSIGLAIGRSTTGGRS came in with an amyloid nucleation score of 0.51 ± 0.9.

For FLPQAAWCKLYLIKLLNPPL, the amyloid nucleation score is 1.1 ± 0.98.

As to AIVNMVLIHKERTVSVLIRA, the amyloid nucleation score is -0.296 ± 0.58.

For the substance FRFLKEASKCKPVTVMSPSW, the amyloid nucleation score turned out to be 0.123 ± 0.7.

In the case of SIMGVDRLVVVWYGFDRCGF, the amyloid nucleation score came out at 1.31 ± 0.66.

For RCYSFRSHRRNFNIYVLSKW, the amyloid nucleation score entry was “inactive”.

Turning to VYWRFPRSNGEWYNMLVLKD, the amyloid nucleation score is -0.576 ± 0.53.

In turn, LVRDHRYFEFLASV gave an amyloid nucleation score of 0.381 ± 0.39.

As to NSDSIGIRVFDV, the amyloid nucleation score stood at 0.242 ± 0.99.

Consider TLVGKVLADDSRGFINCR, for which the amyloid nucleation score worked out at 0.924 ± 0.97.

STLWKASVFKFCYICLYQQW: the amyloid nucleation score turned out to be 0.35 ± 0.95.

The substance GWTTYPSNN returned an amyloid nucleation score of 0.996 ± 0.37.

In the case of LIFQVSQSIGTYSCTKSEGR, the amyloid nucleation score was determined as 0.756 ± 0.2.

LVRKKVCTI gave an amyloid nucleation score of 0.543 ± 0.36.

As to LGCVVHDCYKVVDGIMSYML, the amyloid nucleation score turned out to be 1.69 ± 0.41.

In the case of VYSWNNYGDRKILMLFLTGY, the amyloid nucleation score is 4.63 ± 0.065.

As to PQVVRRGTHKVGRDNG, the amyloid nucleation score worked out at 0.186 ± 1.6.

In the case of CCGLSDLYDVAVERVGGLLN, the amyloid nucleation score is -1.26 ± 1.1.

In turn, GCDGATVAGGTNYPDQMYSF showed an amyloid nucleation score of 0.786 ± 0.74.

The substance YKSISSDSAKWFVMGLNGLV displayed an amyloid nucleation score of -1.6 ± 1.1.

For the substance AHRDWFS, the amyloid nucleation score is -0.553 ± 1.1.

Substance VDPGDVVFLLRPRSEHWGVG showed an amyloid nucleation score of 2.12 ± 0.18.

As to TGMGGV, the amyloid nucleation score stood at 0.177 ± 1.2.

In the case of FIVGTFLHENASLRFRIHKA, the amyloid nucleation score is -0.011 ± 0.35.

With TGCCFYVSDHF, the amyloid nucleation score is 7.88 ± 0.071.

Consider CDFAYRDWCHKMRYRYTRPC, for which the amyloid nucleation score turned out to be 0.38 ± 0.39.

Consider IYFVIDCN, for which the amyloid nucleation score was 0.835 ± 0.56.

In turn, FFFIN displayed an amyloid nucleation score of -0.391 ± 0.47.

As to KGKECKRFLVNTKIGSNRT, the amyloid nucleation score result was “inactive”.

In turn, DCCISVSHSGRAALYVKVEI showed an amyloid nucleation score of 0.022 ± 0.46.

The substance FVVSDRGWTQALRHYPDTRM registered an amyloid nucleation score of -0.25 ± 0.34.

Regarding QKNCT, the amyloid nucleation score was determined as 1.01 ± 0.34.

The substance EQPGVHYQNQFYKHVLYNAS returned an amyloid nucleation score of 0.587 ± 0.38.

Regarding MCKVHIIEHCSLYWRSCGIW, the amyloid nucleation score entry is “inactive”.

Consider FTCSTYNCWGVHS, for which the amyloid nucleation score was 1.26 ± 0.37.

As to IILFNRILLV, the amyloid nucleation score entry is “inactive”.

In turn, CKTCFTLRKIF displayed an amyloid nucleation score of -0.461 ± 0.38.

For ATQRKDIA, the amyloid nucleation score entry was “inactive”.

In the case of FGMVGTCYRMDRWDVIAVSV, the amyloid nucleation score was 0.44 ± 0.41.

For the substance LCNKVWFAECQIHSRQG, the amyloid nucleation score was -0.144 ± 0.83.

In turn, ARSSK returned an amyloid nucleation score of -0.081 ± 0.23.

GSSMLHSFSFGGPALVCCVF: the amyloid nucleation score came to 7.167 ± 0.055.

GNSHMFIIAYSTYMLYTQTL returned an amyloid nucleation score of 0.845 ± 0.55.

Substance QGYASLGTQRTRPGYGKFGE gave an amyloid nucleation score of 0.382 ± 0.27.

The substance VFKFKTM had an amyloid nucleation score of 1.24 ± 0.81.

SFLSCRWLVFRLMKLRYICA: the amyloid nucleation score worked out at 0.444 ± 1.4.

In the case of RWWSWCSFTSSIFYCYLLCA, the amyloid nucleation score worked out at 2.2 ± 0.13.

SCFLC registered an amyloid nucleation score of 1.4 ± 0.18.

On to GVCVNVKLLNWFKSRGTSSR, for which the amyloid nucleation score turned out to be 1.91 ± 0.38.

With WGPRSVNGTLRI, the amyloid nucleation score was -0.488 ± 0.32.

TYLRMCGSSTR: the amyloid nucleation score is -0.14 ± 0.3.

As for TRYPLNISEVFRFDFPNRIP, the amyloid nucleation score was -1.32 ± 2.4.

Consider LCAEN, for which the amyloid nucleation score was determined as 0.48 ± 0.52.

GSGYFDGVIFIYLT had an amyloid nucleation score of -1.11 ± 1.1.

YFPIGYFVRKEDYGTCENDD yielded an amyloid nucleation score of 0.386 ± 0.31.

Regarding YYGNTRWLDYMPLL, the amyloid nucleation score entry is “inactive”.

The substance TRSMALL showed an amyloid nucleation score of -0.098 ± 0.71.

On to RYVGLGGFM, for which the amyloid nucleation score was -0.655 ± 0.46.

In the case of DTVVGSAFCQGMYLSESVML, the amyloid nucleation score came to 1.56 ± 0.76.

Regarding EKGKLCKG, the amyloid nucleation score was -0.101 ± 0.84.

VSMHNLMQRFSGFMYQCFAG: the amyloid nucleation score came out at 1.55 ± 0.2.

In turn, LNFWGACLIHYSWQNTIVLV displayed an amyloid nucleation score of 2.28 ± 0.16.

PRVLHTSVGFCLFNEYCSTT showed an amyloid nucleation score of 2.45 ± 0.18.

With SGRLVSRGTKHNQSSRCE, the amyloid nucleation score was -0.232 ± 0.9.

The substance RYMVSCRGGGKWQPPLFDMR yielded an amyloid nucleation score of 1.23 ± 0.66.

VRSGRSDATAAKYFLHLTWY: the amyloid nucleation score was -0.465 ± 0.89.

For the substance RLVPVACNPSLNKAVENSFF, the amyloid nucleation score worked out at 0.056 ± 1.5.

Take ALVYANPMTVWPSGSLTSVL: the amyloid nucleation score came out at 0.685 ± 0.47.

As for NVRLHVVYVSPSYACFIWSW, the amyloid nucleation score came out at 0.343 ± 1.4.

In turn, WRSNI registered an amyloid nucleation score of -0.151 ± 0.49.

The substance SSEDYALVLRSSGALVCSCL came in with an amyloid nucleation score of 0.418 ± 1.

In turn, ARTRVTLSR registered an amyloid nucleation score of -0.072 ± 0.98.

As for DSQFAVKFCAR, the amyloid nucleation score entry was “inactive”.

Take PMYWLPIFLS: the amyloid nucleation score entry is “inactive”.

CLIISRVVRSVTNIMEMNNG yielded an amyloid nucleation score of 0.251 ± 0.45.

Turning to FKSGRDSGMRG, the amyloid nucleation score is -1.57 ± 1.1.

For IDMLFPFCCVALRSHRSLEG, the amyloid nucleation score stood at 0.722 ± 0.46.

Turning to YIPFGLIYHGKLG, the amyloid nucleation score is -0.969 ± 2.1.

Substance CSYCVAENQFMEFRGFMRGP registered an amyloid nucleation score of 0.234 ± 0.34.

LNTFTVLMLWMLLQNVAFIL showed an amyloid nucleation score of -1.37 ± 2.1.

SVENNTAPICNTKSSVSDSL returned an amyloid nucleation score of 0.852 ± 0.93.

Regarding SVRVI, the amyloid nucleation score came to 0.105 ± 0.73.

For WLAFWCDLGVSSSFFWAFCG, the amyloid nucleation score is -0.066 ± 0.37.

Consider FFTKAGRPFGLTRDISVL, for which the amyloid nucleation score was -0.23 ± 0.87.

The substance ACFPLQVKDCYKCLGHLRAV showed an amyloid nucleation score of 0.315 ± 0.29.

Substance MALFSCCCKVYKMG showed an amyloid nucleation score of 4.59 ± 0.1.

As for GTTCGSLHRAWGLAKTGCNW, the amyloid nucleation score is -0.388 ± 0.42.

On to LEQFMTRYRSDIVYCCDSGS, for which the amyloid nucleation score result is “inactive”.

ITPGLVAPSPDTKCSACDIL: the amyloid nucleation score was 0.074 ± 0.34.

Consider SGCWT, for which the amyloid nucleation score turned out to be 0.331 ± 0.8.

The substance FSRDLLARGVDTPSVEFRSS showed an amyloid nucleation score of -0.362 ± 0.72.

CWIFQDCCQKDCMLFLPCCK came in with an amyloid nucleation score of 0.554 ± 0.26.

The substance RIKVYALMHRSGGICTFIR yielded an amyloid nucleation score of 0.04 ± 0.21.

FGTLCSGDRYVRR returned an amyloid nucleation score of -0.611 ± 0.28.

The substance GQIDGCGTRVNT returned an amyloid nucleation score of 2.17 ± 0.14.

In turn, RILWSLYGGSLFPYVSVGWR came in with an amyloid nucleation score of 0.552 ± 0.56.

LLYIRVADSRPGDLRWLSEV came in with an amyloid nucleation score of -0.106 ± 0.5.

For the substance FNYHACSNFSFSPDQPSFHC, the amyloid nucleation score came to 0.553 ± 0.45.

With RASKFGLLGHMAYSIYHYVM, the amyloid nucleation score is -0.974 ± 1.7.

Take FLHHFQCKNTSN: the amyloid nucleation score entry is “inactive”.

VILSARSFMTIHGHYCTYRV: the amyloid nucleation score worked out at 0.474 ± 0.88.

Substance NTNLVWR showed an amyloid nucleation score of 0.267 ± 0.36.

For NTHKLSGLI, the amyloid nucleation score came to 0.149 ± 0.41.

In turn, FSKLWSVWLRLCLKG showed an amyloid nucleation score of 0.334 ± 0.52.

The substance NWINNRG displayed an amyloid nucleation score of 1.03 ± 0.32.

EAGLCSK registered an amyloid nucleation score of -0.316 ± 0.45.

In turn, EYFMRGLLWLI had an amyloid nucleation score of 0.795 ± 0.39.

The substance KWGLGFFDWKMKYHFRCYKC returned an amyloid nucleation score of 0.033 ± 0.56.

For the substance LFFCGLGERG, the amyloid nucleation score entry is “inactive”.

Turning to HCRPFFSVEINKCLSC, the amyloid nucleation score was 5.15 ± 0.1.

RTWAEWCLVLVSGFGSGAML returned an amyloid nucleation score of 0.086 ± 0.54.

YILSFFCVVEARDFFVDFEM: the amyloid nucleation score came to 5 ± 0.062.

For the substance SLSLDSNEKRKRICFW, the amyloid nucleation score amounted to 1.36 ± 0.29.

With GGRNF, the amyloid nucleation score is -0.696 ± 0.57.

For YCSTSYRSSHNRSGVWKGTL, the amyloid nucleation score worked out at 1.62 ± 0.55.

In turn, HLMDSSYGSGSGCSTKTSCV displayed an amyloid nucleation score of 0.061 ± 0.28.

Substance DQGSWFH gave an amyloid nucleation score of -0.31 ± 1.1.

In turn, NARVILCVVFILGAMTRLGL had an amyloid nucleation score of -0.549 ± 0.65.

Regarding CNVKCLRVARFDFVYRFFLP, the amyloid nucleation score entry was “inactive”.

Consider SMSAQPFCNHV, for which the amyloid nucleation score is -0.926 ± 0.91.
